In patent publication US20050037961A1 (BAYLOR COLLEGE OF MEDICINE, published 2005):

B1: FLAG-tagged rat CRP2 (αMHC-CRP2 transgene) (other, UniProt Q62908 1-193, looked up, not shown: small tags and cut ends)
chain: MPVWGGGNKCGACGRTVYHAEEVQCDGRTFHRCCFLCMVCRKNLDSTTVAIHDEEIYCKSCYGKKYGPKGYGYGQGAGTLNMDRGERLGIKPESAQPHRPTTNPNTSKFAQKYGGAEKCSRCGDSVYAAEKIIGAGKPWHKNCFRCAKCGKSLESTTLTEKEGEIYCKGCYAKNFGPKGFGYGQGAGALVHAQ
notes: Expressed in cardiomyocytes of transgenic mice and assayed in nuclear and cytoplasmic heart extracts; also called FLAG-CRP2; FLAG-tagged CRP2

Columns and labels:
[1] = molecular target: T1, endogenous SRF (αMHC-CRP2 mouse heart nuclear extract) (mouse, UniProt Q9JM73 1-504); assay: co-IP from nuclear extracts of αMHC-CRP2 transgenic mouse hearts, immunoblot
T1 sequence (looked up): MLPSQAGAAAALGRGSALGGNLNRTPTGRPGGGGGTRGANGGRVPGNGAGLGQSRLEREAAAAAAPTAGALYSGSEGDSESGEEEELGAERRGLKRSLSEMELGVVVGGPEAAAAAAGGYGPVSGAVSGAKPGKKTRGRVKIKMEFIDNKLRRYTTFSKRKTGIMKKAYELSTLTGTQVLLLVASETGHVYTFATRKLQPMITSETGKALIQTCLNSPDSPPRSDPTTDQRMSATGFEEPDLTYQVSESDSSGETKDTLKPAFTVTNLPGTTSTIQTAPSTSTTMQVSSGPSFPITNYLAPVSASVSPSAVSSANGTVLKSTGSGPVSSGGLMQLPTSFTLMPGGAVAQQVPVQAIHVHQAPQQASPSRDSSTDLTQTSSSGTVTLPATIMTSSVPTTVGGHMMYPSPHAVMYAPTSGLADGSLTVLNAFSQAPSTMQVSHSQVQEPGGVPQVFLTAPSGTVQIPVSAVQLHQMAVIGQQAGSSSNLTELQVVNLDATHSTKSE

[2] = molecular target: B1; assay: co-IP from nuclear extracts of αMHC-CRP2 transgenic mouse hearts
[3] = molecular target: T1, endogenous SRF (αMHC-CRP2 mouse heart …); assay: as above
[4] = molecular target: endogenous GATA6 (αMHC-CRP2 mouse heart nuclear extract) (mouse, UniProt Q61169 1-589, limits assumed); assay: as above
GST-SRF = molecular target: T2, GST-SRF (human, UniProt P11831 1-508); assay: GST-SRF pull-down of 35S-labelled in vitro translated protein
T2 construct: also called GST-SRF fusion protein; not shown: glutathione S-transferase encoded by vector pGEX-2T
T2 sequence (looked up): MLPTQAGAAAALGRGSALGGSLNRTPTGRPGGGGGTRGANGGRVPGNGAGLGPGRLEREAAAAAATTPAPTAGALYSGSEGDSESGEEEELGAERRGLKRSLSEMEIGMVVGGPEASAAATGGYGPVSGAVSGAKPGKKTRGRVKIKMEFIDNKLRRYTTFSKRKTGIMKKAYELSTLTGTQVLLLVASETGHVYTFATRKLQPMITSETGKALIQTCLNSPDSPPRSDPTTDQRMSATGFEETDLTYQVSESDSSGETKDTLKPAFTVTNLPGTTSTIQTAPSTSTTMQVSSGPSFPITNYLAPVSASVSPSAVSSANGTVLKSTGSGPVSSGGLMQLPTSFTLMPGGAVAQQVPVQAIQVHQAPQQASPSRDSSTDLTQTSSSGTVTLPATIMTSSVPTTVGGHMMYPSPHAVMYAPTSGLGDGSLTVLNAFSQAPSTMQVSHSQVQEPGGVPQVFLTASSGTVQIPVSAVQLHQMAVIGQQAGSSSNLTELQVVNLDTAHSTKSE

Chain of endogenous GATA6 (αMHC-CRP2 mouse heart nuclear extract) (Q61169 whole entry): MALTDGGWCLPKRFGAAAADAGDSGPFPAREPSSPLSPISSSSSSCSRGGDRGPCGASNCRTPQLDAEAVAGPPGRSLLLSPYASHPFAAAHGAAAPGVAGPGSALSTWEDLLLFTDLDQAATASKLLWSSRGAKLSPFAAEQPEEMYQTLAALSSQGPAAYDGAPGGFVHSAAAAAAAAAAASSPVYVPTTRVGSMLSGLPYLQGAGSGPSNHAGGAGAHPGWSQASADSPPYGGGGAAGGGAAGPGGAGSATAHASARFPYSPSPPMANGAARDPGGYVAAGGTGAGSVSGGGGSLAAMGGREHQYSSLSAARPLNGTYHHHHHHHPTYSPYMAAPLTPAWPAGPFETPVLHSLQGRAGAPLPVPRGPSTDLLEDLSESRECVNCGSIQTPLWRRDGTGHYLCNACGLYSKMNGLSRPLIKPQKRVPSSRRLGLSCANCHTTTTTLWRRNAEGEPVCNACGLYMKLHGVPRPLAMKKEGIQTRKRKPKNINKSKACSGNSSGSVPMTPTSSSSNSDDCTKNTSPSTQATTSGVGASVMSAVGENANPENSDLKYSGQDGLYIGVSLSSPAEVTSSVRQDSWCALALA

Binder: B1
- binding result [1]: binds

B2: Id1, endogenous cardiac bHLH transcription factor (other, mouse, UniProt P20067 1-168, looked up)
chain: MKVASGSAAAAAGPSCSLKAGRTAGEVVLGLSEQSVAISRCAGTRLPALLDEQQVNVLLYDMNGCYSRLKELVPTLPQNRKVSKVEILQHVIDYIRDLQLELNSESEVGTTGGRGLPVRAPLSTLNGEISALAAEVRSESEYYIILQWETEATGGGCPPSLLFRRIAI
- binding result [2]: no binding
- binding result [3]: no binding
- binding result [4]: no binding

B3: CRP2ZF2+ZF3 (aa 35-145) (other, rat, UniProt Q62908 35-145, looked up, not shown: small tags and cut ends)
chain: FLCMVCRKNLDSTTVAIHDEEIYCKSCYGKKYGPKGYGYGQGAGTLNMDRGERLGIKPESAQPHRPTTNPNTSKFAQKYGGAEKCSRCGDSVYAAEKIIGAGKPWHKNCFR
notes: range 35-145; also called C2ZF2+ZF3
- binding result (GST-SRF): no binding
